Measurements published in the nanobody polyreactivity screen of Harvey et al. (2022).

test: yeast display, Sf9 membrane polyspecificity reagent, FACS + sequencing; frameworks hold sequencing errors
In short: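 Synthetic nanobody libraries on Saccharomyces cerevisiae BJ5465 were galactose-induced for 36–48 hours, stained 1 hour at 4 °C with 10% biotinylated, detergent-solubilized Sf9 membrane reagent and enriched on streptavidin microbeads. FACS then separated cells into low and high (top ~1%) gates by anti-HA (expression) and streptavidin (reagent binding) fluorescence. Genes were colony-PCR amplified, MiSeq 2 × 250 sequenced and CDR-length filtered. A clone's polyreactivity label is that of its gate of origin.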

Sequence	polyreactivity (PSR sort gate)
QVQLVESGGGLVQAGGTLRLSCAASGIIFNYYAMGWYRHAPGKERELVAAITRGGRTNYADSVKGRFTISRDNAKNTVYLQMNSLKPEDTAVYYCNAPAFYKYKSFYAHSGYDYWGQGTQVTVSS	high polyreactivity
QVQLVESGGGLVQAGGTLRLSCAASGITFYLNAMGWYRQAPGKERELVADITVSGGSTYYAVSVKGRFTISRDNVKNTVYLQMNSLKPEDTAVYYCAAKYSSGRVLFEHGYWGQGTQVTVSS	low polyreactivity
QVQLVESGGGLVQAGGTLRLSCAASGRIFGYNAMGWYRQAPGKERELVAVISTSGTIRYYADSVKGRFTISRVNAKNTVYLQMKSLKPEDTAVYYCAARYYQRANGFGYWGQGTQVTVSS	low polyreactivity
QVQLVESGGGLVQAGGTLRLSCAASGRIFTRYAMGWYRQAPGKERELVAAISYGGGVTYYADSVKGRFTISRDNAKNTVYLQMNSLKPEDTAVYYCATDDPLSQINEKGMDYWGQGTQVTVSS	low polyreactivity
QVQLVESGGGLVQAGGTLRLSCAASGRILPRNAMGWSRQAPGKERELVAGISSDGSTNYADSVKGRFTISRDNAKNSVYLQMNILKPEDTAVYYCAADGVYDPYVYGYWGQGTQVTVSS	low polyreactivity
QVQLVESGGGLVQAGGTLRLSCAASGRTFDTNAMAWYRQAPGKERELVASITWVGGSTYYADSVKGRFTISRDNAKNTVYLQMNSLKPEDTAVYYCNRDRVSGGKYNYWGQGSQVTVSS	low polyreactivity
QVQLVESGGGLVQAGGTLRLSCAASGRTFGFYAMGWYRQAPGKERELVAVITRGGYTSYADSVKGRFTISRDNAKNTVYLQMNSLKPEDTAVYYCAAGWHYWDHRYDYWGQGTQVTVSS	high polyreactivity
QVQLVESGGGLVQAGGTLRLSCAASGRTFLWNDMGWDRQAPGQERELVAAITGSDGTYADSVKGRFTISRDNAKNTVYLQMNSLKPEDNAVYYCAAETYWFFPWKYDYWGQGTQVTVSS	low polyreactivity
QVQLVESGGGLVQAGGTLRLSCAASGRTLHGYAMGWYRQAPGKERELVASITWSGASTYYADSVKGRFTISRDNAKNTVYLQMNSLKPEDTAVYYCAADRSRYVRRRYGYWGQGTQVTVSS	high polyreactivity
QVQLVESGGGLVQAGGTLRLSCAASGSIFAGYAMGWYRQAPGKVRELVATITSGGSTNYADSVKGRFTISRDNAKNTVYLQMNSLKPEETAVYYCAADVEDSIATSYTCGEYVYWGQGTQVTVSS	low polyreactivity
QVQLVESGGGLVQAGGTLRLSCAASGSIFAVNAMGWYRQAPGKERELVAAISKRGGSTYYADSVKGRFTISRDNAKNTVYLQMNSLKPEDTAVYYCAARILVTYHRDYYYWGLGTQVTVSS	high polyreactivity
QVQLVESGGGLVQAGGTLRLSCAASGSIFGNNLMGWYRQAPGKERELVAAISWSGGKNYADSVKGRFTISRDNAKNTVYLEMHCLIPDDSAVYYCAALSVWSYYTYYYWGQGTQVTVSS	high polyreactivity
QVQLVESGGGLVQAGGTLRLSCAASGSTFGGYAMGLYRQAPGKERELVAAITWSGDTYYADSVKGRFTISRDNAKNSVYLQMNSLKPEDTAVYYCAAYSRVGPYRYAYWGQGTQVTVSS	high polyreactivity
QVQLVESGGGLVQAGGTLRLSCAASGSTFKYYAMGWYRQAPGKEREFVASINWSGVSTYYADSVKGRFTISRDNAKNTVYLQMNSLKPEDTAVYYCAARVRGKYDYWGQGTQVTVSS	high polyreactivity
QVQLVESGGGLVQAGGTLRLSCAASGSTFTGNAMGWYRQAPGKERELVAAITIGGSRTYYADSVKGRFTISRDNAKNTVYLQMNSLKPEDTAVYYCAATSRGTDYWGQGTQVTVSS	high polyreactivity
QVQLVESGGGLVQAGGTLRLSCAASGSTFYLYAMGWYRQAPGNERELVAAISSAGGSTYYADSVKGRFTISRVNAKNTVYLQMNSLKPEDTAVYYCTRDIRRRGNYWGQGTQVTVSS	high polyreactivity
QVQLVESGGGLVQAGGTLRLSCAASGYTFGVYFMGWYRHAPGKERELVAAISGSTYYADSVKGRFTISRDNAKNTVYLQMNSLKQEDTAVYYCAAESYFFSPRTREKFDYWGQGTQVTVSS	low polyreactivity
QVQLVESGGGLVQAGGTLRLSCAATGFTFYEYAMGWYRQAPGKERELVAGIRRSGDSTYYADSVKGRFTISRDNAKNTVYLQMNILKPEDTAVYYCAKGWYRIKRNDYWGQGTQVTVSS	low polyreactivity
QVQLVESGGGLVQAGGTLRLSSAASGSIFYRNAMGWYRQAPGKERELVDSITSGGLTNYADSVKGRFTISRDNAKNTVYLHMFSLKPEETAVYYCARGRASYTKSGPTPYTGYGYWGQGTQVTVSS	low polyreactivity
QVQLVESGGGLVQAGRSHRLSCAASGFTFAPNAMGWYRQAPGKERELVARIDRAGSTYYADSVKGRFTISRDNAKNTVYLQMNSLKPEVTAVYYCAVVAVLSRPYATKFDYWGQGTQVTVSS	low polyreactivity
QVQLVESGGGLVQAGRSHRLSCAASGSIFPVYVMGWYRQAPGKERELVAAISQSSGGTYYADSVKGRFTISRDNATITVYLQMNSLKPEDTAVYYCAARITAIQGQRYYWGQGTQVTVSS	high polyreactivity

Sequence	polyreactivity (PSR sort gate)
QVQLVESGGGLVQAGRSLRLICAASGLILFYNAMGWYRQPPGKERELVAVITSGGRTYYADSVKGRFTISRDNAKNTVYLQMNSLKPEDTAVYFCAATYGHPTSYGDGWRYGYWGQGTQVTVSS	low polyreactivity
QVQLVESGGGLVQAGRSLRLSCAASGFTFETYAMGWYRQAPGKERELVAAISDGGGDTYYADSVKGRFTISRDNAKNTVYLLMNSLKPEDSAVYYCAAEWDGNWSRGAGGYDYWGQGTQVTVSS	low polyreactivity
QVQLVESGGGLVQAGRSLRLSCAASGFTFRGYAMGWYRQAPGKERELVAAISVRGDSTYYADSVKGRFTISRDNAKNTVYLQMNSLKPEDTAVYYCNAALLGKQYYSNPNYDYWGQGTQVTVSS	high polyreactivity
QVQLVESGGGLVQAGRSLRLSCAASGITFKLYAMGWYRQAPGKERELVARLSLRGGNTYYADSVKVRFTISRDNAKTTVYLQMNSQNPEDTAVYYCNADLYRQYASRYHYWGQGSQVTVSS	high polyreactivity
QVQLVESGGGLVQAGRSLRLSCAASGITLYNYAMGWYRQAPGKERELVAAISLSGGRTYYADSVKGRFTISRDNAKNTVYLQMYSLKPEDTAVYYCAADWLNSDPYNYWGQGTQVTVSS	low polyreactivity
QVQLVESGGGLVQAGRSLRLSCAASGNTLRPNGMGWYRPAPGKERELVAAISSGGSTYYADSVKGRFTISRDNAKNTVYLQMNSLKPEDTAVYYCAAEYWYDYWGQGTQVTVSS	low polyreactivity
QVQLVESGGGLVQAGRSLRLSCAASGRIFISYTMGWYRPAPGKERELVAGIDSSGTSTYYADSVKGRFTISRDYAKNTVYLQMNSLIPEDTAVYYCNVVGNWKDTSTELDYWGQGTQVTVSS	low polyreactivity
QVQLVESGGGLVQAGRSLRLSCAASGRIFRYNTMGWYRQAPGKERELVARINRGGSTNYADSVKGRFTISRDNAKNTVYLQMNSLKAEDTAVYYCNARYTARHYPFSNFDYWGQGTQVTVSS	high polyreactivity
QVQLVESGGGLVQAGRSLRLSCAASGRIFSTNAMGRYRQAPGKERELVAAITRSSSTYYAYSVKGRFTISLDNAKNTVYLQINSLKPEDTAGYYCAASRFQYKSTQFYYWGQATQVTVSS	high polyreactivity
QVQLVESGGGLVQAGRSLRLSCAASGSIFSTNAMGWYTQAQGKEREFVAAIDITNYEDSVKGRFTISRDNSKNTVDFQMNSVIPEDTAVYSCIADTYSVVREGDYWGQGTQVTVSS	low polyreactivity
QVQLVESGGGLVQAGRSLRLSCAASGSIISVYAMGLYRQAPGKERELVADITGTGDTYYADSVKGRFTISRDNAKNTVYLQMNSLIPEDTAVYYCNTVYELYYDPSVTEDYWGQGTQVTVSS	low polyreactivity
QVQLVESGGGLVQAGRSLRLSCAASGSILSINGMGWYRQAPGKERELVATIDGSEGSTFYADSVKGRFTISRDNAKNTFYLQLNSVKPEDTAVYYCAAENFWQTKEYDYWGQGKQVTVSS	low polyreactivity
QVQLVESGGGLVQAGRSLRLSCAASGSTFDGYAMGWYRQAPGKERELVAAISYSGSSTYYADSVKGRFTNSRDNAKNTVYLQMNSLKPEDTAVYYCAVDDTHPFGPDGGGDYWGQGTQVTVSS	low polyreactivity
QVQLVESGGGLVQAGRSLRLSCAASGSTFHPYAMGWYRQAPGKERELVAAINSGDNTYYADSVKGRFTISRDNAKNTVYLQMNSLKPEDTAVYYCAVRYWDESHTEYDYWGQGTQVTVSS	low polyreactivity
QVQLVESGGGLVQAGRSLRLSCAASGSTFKYNAMGWYRQAPGKERELVASISRSGGSTYYADSVKGRFTISRDNAKNTVYLQMNSLKPEDTAGYYCNVRRFVHYEYWGQGSQVTVSS	high polyreactivity
QVQLVESGGGLVQAGRSLRLSCAASGSTFSHYAMGWYRQAPGKERELFATITGTGVRTYYADSVKGRFTISRDNAKNTVYLQMNSLKPEATAVYFCAVPPSIRGAQAQPWMDYWGQGTQVTVSS	low polyreactivity
QVQLVESGGGLVQAGRSLRLSCAASRSIFARYAMAWYRQAPGKERELVAAINSTVSTNYADSVKGRFTISRENAKNTVYLQMNSLKPEDTAVSYCAVDMVRGGLDSWGQGTQVTVSS	low polyreactivity
QVQLVESGGGLVQAGRSLRLSCAASVFTFYHYAMGWYRQAPGKVRELVAAISNSGVSTYYADSVKGRFTISRDNAKITVYLQLNSLKPEDTAVYYCNAVYQSYHISGDDYWGQGTQVTVSS	high polyreactivity
QVQLVESGGGLVQAGRSLRLSCASSGRIFSSYAKGWYRQAPGKERELVAAITSGGSTDYADSVKGRFTISRDNAKNTVYLQIYRLNPEDTAVYYCAKAFLPPWTYSPYYLFYYWGQGTQVTVSS	low polyreactivity
QVQLVESGGGLVQAGRSLRLSCGASGFTFGLYAMGWYRQATGKERELVAAITSSGRRTYYADSVKGRYTISRDKAKNTVSLEMNCLKPEDTAVYYFAKQAYDQSPYNYWGQGTQVTVSS	high polyreactivity
